Measurements from paper PMC5001930 (Biological psychiatry, 2016).

B1: NTRK3 (receptor)
chain: not shown
B2: SYNGAP1 (natural protein, UniProt F6SEU4 1-1340, looked up)
chain: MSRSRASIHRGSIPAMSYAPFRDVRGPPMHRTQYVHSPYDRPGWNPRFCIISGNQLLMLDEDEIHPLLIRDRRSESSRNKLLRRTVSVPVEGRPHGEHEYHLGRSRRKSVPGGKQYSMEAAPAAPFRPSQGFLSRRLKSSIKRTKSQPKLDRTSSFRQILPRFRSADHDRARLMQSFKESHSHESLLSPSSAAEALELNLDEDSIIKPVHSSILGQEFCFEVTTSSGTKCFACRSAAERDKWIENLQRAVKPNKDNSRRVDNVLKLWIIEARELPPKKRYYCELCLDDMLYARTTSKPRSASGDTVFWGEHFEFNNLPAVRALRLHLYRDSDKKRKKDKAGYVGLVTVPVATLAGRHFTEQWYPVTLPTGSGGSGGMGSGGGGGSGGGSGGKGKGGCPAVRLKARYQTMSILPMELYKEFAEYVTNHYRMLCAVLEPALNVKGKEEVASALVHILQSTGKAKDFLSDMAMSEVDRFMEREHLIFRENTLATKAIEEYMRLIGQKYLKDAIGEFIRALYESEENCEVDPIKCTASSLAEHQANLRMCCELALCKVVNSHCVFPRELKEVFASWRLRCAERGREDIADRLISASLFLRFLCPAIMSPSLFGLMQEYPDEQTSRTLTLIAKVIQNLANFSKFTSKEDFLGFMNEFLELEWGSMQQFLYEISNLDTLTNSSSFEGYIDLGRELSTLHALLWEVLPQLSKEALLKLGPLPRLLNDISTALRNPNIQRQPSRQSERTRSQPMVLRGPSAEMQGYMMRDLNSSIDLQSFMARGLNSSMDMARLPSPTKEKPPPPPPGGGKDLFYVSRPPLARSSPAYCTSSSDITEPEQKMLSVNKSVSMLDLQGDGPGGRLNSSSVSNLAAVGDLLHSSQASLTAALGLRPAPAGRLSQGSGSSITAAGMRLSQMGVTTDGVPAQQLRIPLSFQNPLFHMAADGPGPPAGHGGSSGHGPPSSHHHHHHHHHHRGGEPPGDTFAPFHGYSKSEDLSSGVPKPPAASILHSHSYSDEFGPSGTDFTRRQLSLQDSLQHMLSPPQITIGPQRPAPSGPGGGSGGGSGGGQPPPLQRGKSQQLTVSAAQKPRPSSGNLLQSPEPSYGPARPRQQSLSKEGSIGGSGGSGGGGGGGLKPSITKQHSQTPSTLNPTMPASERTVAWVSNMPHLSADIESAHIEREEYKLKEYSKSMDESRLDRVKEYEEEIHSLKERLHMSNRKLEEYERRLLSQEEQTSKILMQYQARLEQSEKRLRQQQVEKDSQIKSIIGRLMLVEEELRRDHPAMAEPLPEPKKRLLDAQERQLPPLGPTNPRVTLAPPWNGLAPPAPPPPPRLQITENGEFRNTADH
B3: GRM5 (receptor, UniProt Q3UVX5 19-1203, looked up)
chain: SAQSSERRVVAHMPGDIIIGALFSVHHQPTVDKVHERKCGAVREQYGIQRVEAMLHTLERINSDPTLLPNITLGCEIRDSCWHSAVALEQSIEFIRDSLISSEEEEGLVRCVDGSSSFRSKKPIVGVIGPGSSSVAIQVQNLLQLFNIPQIAYSATSMDLSDKTLFKYFMRVVPSDAQQARAMVDIVKRYNWTYVSAVHTEGNYGESGMEAFKDMSAKEGICIAHSYKIYSNAGEQSFDKLLKKLRSHLPKARVVACFCEGMTVRGLLMAMRRLGLAGEFLLLGSDGWADRYDVTDGYQREAVGGITIKLQSPDVKWFDDYYLKLRPETNLRNPWFQEFWQHRFQCRLEGFAQENSKYNKTCNSSLTLRTHHVQDSKMGFVINAIYSMAYGLHNMQMSLCPGYAGLCDAMKPIDGRKLLDSLMKTNFTGVSGDMILFDENGDSPGRYEIMNFKEMGKDYFDYINVGSWDNGELKMDDDEVWSKKNNIIRSVCSEPCEKGQIKVIRKGEVSCCWTCTPCKENEYVFDEYTCKACQLGSWPTDDLTGCDLIPVQYLRWGDPEPIAAVVFACLGLLATLFVTVIFIIYRDTPVVKSSSRELCYIILAGICLGYLCTFCLIAKPKQIYCYLQRIGIGLSPAMSYSALVTKTNRIARILAGSKKKICTKKPRFMSACAQLVIAFILICIQLGIIVALFIMEPPDIMHDYPSIREVYLICNTTNLGVVTPLGYNGLLILSCTFYAFKTRNVPANFNEAKYIAFTMYTTCIIWLAFVPIYFGSNYKIITMCFSVSLSATVALGCMFVPKVYIILAKPERNVRSAFTTSTVVRMHVGDGKSSSAASRSSSLVNLWKRRGSSGETLRYKDRRLAQHKSEIECFTPKGSMGNGGRATMSSSNGKSVTWAQNEKSTRGQHLWQRLSVHINKKENPNQTAVIKPFPKSTESRGQGAGAGGGSGPGAAGAGSAGCTATGGPEPPDAGPKALYDVAEAEERFPAAARPRSPSPISTLSHLAGSAGRTDDDAPSLHSETAARSSSSQGSLMEQISSVVTRFTANITELNSMMLSTAAAPGPPGTPICSSYLIPKEIQLPTTMTTFAEIQPLPAIEVTGGAQPATGPSPAQETPAGAEAAPGKPDLEELVALTPPSPFRDSVDSGSTTPNSPVSESALCIPSSPKYDTLIIRDYTQSSSSL

Molecular target: MET receptor tyrosine kinase (mouse (endogenous in neocortical …, UniProt P16056 25-1379))
Assay: co-IP

Row | Binder | mean fold change (HGF/PBS) of binding [fold]
1 | B1 | 0.95
2 | B2 | 0.63
3 | B3 | 1.35
